# Results: the supplement of paper PMC9112550, “Optimization of the antimicrobial peptide Bac7 by deep mutational scanning” (BMC Biology, 2022)
# Tested on: Escherichia coli TOP10
# Experiment: shrunken log2 fold change of peptide-encoding DNA abundance (4.5 h post-induction vs induction); higher = less antimicrobial activity (less host growth inhibition)
# Settings: time post-induction: 4.5 h; library: site-saturation at positions 5, 18, 19, 20
# 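Further: peptides expressed intracellularly from a pBAD plasmid library in pooled LB shake-flask culture, induced with 0.3% L-arabinose, DNA abundance read by NGS, three biological replicates, DESeq2 with apeglm shrinkage.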
row,Sequence,shrunken log2 fold change
1,RRIRLRPPRLPRPRPRPIPVPRP,-0.0985
2,RRIRDRPPRLPRPRPRPHSAPRP,0.0279
3,RRIRQRPPRLPRPRPRPEHMPRP,-0.0877
4,RRIRCRPPRLPRPRPRPQCYPRP,-0.474
5,RRIRSRPPRLPRPRPRPDQCPRP,-0.209
6,RRIRERPPRLPRPRPRPMPSPRP,0.156
7,RRIRARPPRLPRPRPRPWMIPRP,-0.0822
8,RRIRLRPPRLPRPRPRPGRSPRP,0.326
9,RRIRGRPPRLPRPRPRPNMYPRP,-0.185
10,RRIRSRPPRLPRPRPRPAPGPRP,0.54
11,RRIRNRPPRLPRPRPRPGLNPRP,0.035
12,RRIRKRPPRLPRPRPRPSQNPRP,0.269
13,RRIRPRPPRLPRPRPRPMWFPRP,-0.113
14,RRIRWRPPRLPRPRPRPKLTPRP,0.475
15,RRIRVRPPRLPRPRPRPQPIPRP,-0.375
16,RRIRGRPPRLPRPRPRPFISPRP,0.183
17,RRIRDRPPRLPRPRPRPFKAPRP,-0.334
18,RRIRFRPPRLPRPRPRPFHWPRP,-0.336
19,RRIRYRPPRLPRPRPRPDPPPRP,0.0918
20,RRIRRRPPRLPRPRPRPDIWPRP,0.418
21,RRIRYRPPRLPRPRPRPSKHPRP,-0.786
22,RRIRWRPPRLPRPRPRPSADPRP,0.115
23,RRIRCRPPRLPRPRPRPHQIPRP,-0.389
24,RRIRARPPRLPRPRPRPMAVPRP,0.209
25,RRIRTRPPRLPRPRPRPNVNPRP,1.5

row,Sequence,shrunken log2 fold change
1,RRIRIRPPRLPRPRPRPAVAPRP,0.0259
2,RRIRERPPRLPRPRPRPLSHPRP,-0.314
3,RRIRQRPPRLPRPRPRPKVYPRP,-0.177
4,RRIRIRPPRLPRPRPRPTDCPRP,-0.196
5,RRIRIRPPRLPRPRPRPICVPRP,-0.181
6,RRIRNRPPRLPRPRPRPIHHPRP,-0.383
7,RRIRPRPPRLPRPRPRPGARPRP,1.19
8,RRIRERPPRLPRPRPRPGSCPRP,-0.0703
9,RRIRTRPPRLPRPRPRPPPPPRP,0.862
10,RRIRWRPPRLPRPRPRPNKHPRP,-0.281
11,RRIRKRPPRLPRPRPRPDWAPRP,-0.0624
12,RRIRWRPPRLPRPRPRPLGHPRP,0.035
13,RRIRPRPPRLPRPRPRPENRPRP,0.0972
14,RRIRHRPPRLPRPRPRPFFGPRP,-0.0142
15,RRIRKRPPRLPRPRPRPRTNPRP,0.238
16,RRIRFRPPRLPRPRPRPQAMPRP,0.0123
17,RRIRDRPPRLPRPRPRPNSRPRP,-0.0447
18,RRIRQRPPRLPRPRPRPERDPRP,0.321
19,RRIRKRPPRLPRPRPRPKMHPRP,0.483
20,RRIRRRPPRLPRPRPRPPKGPRP,0.706
21,RRIRTRPPRLPRPRPRPCHAPRP,-0.0567
22,RRIRLRPPRLPRPRPRPVLYPRP,-0.239
23,RRIRRRPPRLPRPRPRPVYCPRP,-0.0322
24,RRIRLRPPRLPRPRPRPCASPRP,0.259
25,RRIRFRPPRLPRPRPRPNCKPRP,-0.0929

row,Sequence,shrunken log2 fold change
1,RRIRYRPPRLPRPRPRPPHMPRP,-0.656
2,RRIRYRPPRLPRPRPRPLVKPRP,-1.45
3,RRIRTRPPRLPRPRPRPCEQPRP,0.0027
4,RRIRIRPPRLPRPRPRPQWHPRP,-0.381
5,RRIRNRPPRLPRPRPRPAPCPRP,0.0656
6,RRIRDRPPRLPRPRPRPPRPPRP,0.616
7,RRIRGRPPRLPRPRPRPDQHPRP,0.271
8,RRIRGRPPRLPRPRPRPVWNPRP,0.0596
9,RRIRWRPPRLPRPRPRPMFYPRP,-0.395
10,RRIRVRPPRLPRPRPRPMAPPRP,0.0351
11,RRIRWRPPRLPRPRPRPEQVPRP,0.21
12,RRIRCRPPRLPRPRPRPPSTPRP,-0.0239
13,RRIRIRPPRLPRPRPRPEGRPRP,-0.0382
14,RRIRLRPPRLPRPRPRPGEVPRP,0.117
15,RRIRCRPPRLPRPRPRPWQVPRP,0.00859
16,RRIRQRPPRLPRPRPRPQAIPRP,0.0712
17,RRIRCRPPRLPRPRPRPNIQPRP,-0.584
18,RRIRWRPPRLPRPRPRPDLAPRP,0.953
19,RRIRPRPPRLPRPRPRPWPCPRP,0.0872
20,RRIRDRPPRLPRPRPRPHYVPRP,-0.0495
21,RRIRPRPPRLPRPRPRPMYMPRP,-0.0346
22,RRIRKRPPRLPRPRPRPKWNPRP,0.392
23,RRIRIRPPRLPRPRPRPIWNPRP,-0.263
24,RRIRPRPPRLPRPRPRPGERPRP,0.1
25,RRIRDRPPRLPRPRPRPKDCPRP,0.173

row,Sequence,shrunken log2 fold change
1,RRIRDRPPRLPRPRPRPYQFPRP,-0.0464
2,RRIRTRPPRLPRPRPRPSPIPRP,-0.733
3,RRIRSRPPRLPRPRPRPARGPRP,0.574
4,RRIRQRPPRLPRPRPRPAQRPRP,0.302
5,RRIRKRPPRLPRPRPRPWPPPRP,0.56
6,RRIRLRPPRLPRPRPRPQYWPRP,-0.275
7,RRIRCRPPRLPRPRPRPHCLPRP,-1.4
8,RRIRIRPPRLPRPRPRPQYKPRP,-0.848
9,RRIRFRPPRLPRPRPRPLSAPRP,-0.039
10,RRIRTRPPRLPRPRPRPCYFPRP,-0.616
11,RRIRPRPPRLPRPRPRPIETPRP,0.0267
12,RRIRERPPRLPRPRPRPYKPPRP,-0.116
13,RRIRNRPPRLPRPRPRPHMVPRP,-0.13
14,RRIRTRPPRLPRPRPRPETVPRP,0.0349
15,RRIRDRPPRLPRPRPRPNLQPRP,-0.71
16,RRIRTRPPRLPRPRPRPIDDPRP,-0.498
17,RRIRFRPPRLPRPRPRPDRFPRP,0.042
18,RRIRMRPPRLPRPRPRPVGSPRP,0.99
19,RRIRFRPPRLPRPRPRPPIRPRP,-0.0123
20,RRIRVRPPRLPRPRPRPYWEPRP,-0.508
21,RRIRIRPPRLPRPRPRPYQWPRP,-0.316
22,RRIRDRPPRLPRPRPRPFMEPRP,-0.148
23,RRIRIRPPRLPRPRPRPSIRPRP,-0.212
24,RRIRARPPRLPRPRPRPSNKPRP,-0.31
25,RRIRSRPPRLPRPRPRPHWEPRP,-0.0851

row,Sequence,shrunken log2 fold change
1,RRIRFRPPRLPRPRPRPMCCPRP,-0.429
2,RRIRGRPPRLPRPRPRPMPKPRP,0.884
3,RRIRARPPRLPRPRPRPWMDPRP,0.14
4,RRIRSRPPRLPRPRPRPMEQPRP,-0.00992
5,RRIRHRPPRLPRPRPRPRIVPRP,0.00411
6,RRIRGRPPRLPRPRPRPRFFPRP,0.741
7,RRIRNRPPRLPRPRPRPGQHPRP,0.128
8,RRIRNRPPRLPRPRPRPKALPRP,0.0983
9,RRIRFRPPRLPRPRPRPFVAPRP,-0.0081
10,RRIRARPPRLPRPRPRPHVPPRP,-0.242
11,RRIRVRPPRLPRPRPRPVVTPRP,0.0368
12,RRIRTRPPRLPRPRPRPEFGPRP,0.0617
13,RRIRGRPPRLPRPRPRPKTQPRP,0.929
14,RRIRCRPPRLPRPRPRPIPCPRP,-0.489
15,RRIRWRPPRLPRPRPRPMRRPRP,0.481
16,RRIRNRPPRLPRPRPRPCAPPRP,-0.436
17,RRIRQRPPRLPRPRPRPAWDPRP,1.54
18,RRIRPRPPRLPRPRPRPLGMPRP,-0.0753
19,RRIRQRPPRLPRPRPRPYWPPRP,-0.11
20,RRIRNRPPRLPRPRPRPFAIPRP,-0.0909
21,RRIRNRPPRLPRPRPRPNQKPRP,-0.174
22,RRIRFRPPRLPRPRPRPEFDPRP,-0.193
23,RRIRTRPPRLPRPRPRPWIPPRP,-0.2
24,RRIRSRPPRLPRPRPRPHCCPRP,0.022
25,RRIRWRPPRLPRPRPRPVNVPRP,-0.328

row,Sequence,shrunken log2 fold change
1,RRIRGRPPRLPRPRPRPEMVPRP,2.43
2,RRIRARPPRLPRPRPRPWKEPRP,0.00952
3,RRIRERPPRLPRPRPRPDWGPRP,-0.00783
4,RRIRRRPPRLPRPRPRPSMPPRP,-0.0915
5,RRIRCRPPRLPRPRPRPWKRPRP,-0.0584
6,RRIRWRPPRLPRPRPRPHEAPRP,0.273
7,RRIRMRPPRLPRPRPRPKKTPRP,1.46
8,RRIRWRPPRLPRPRPRPWGNPRP,0.149
9,RRIRARPPRLPRPRPRPRWWPRP,0.199
10,RRIRGRPPRLPRPRPRPNWSPRP,0.131
11,RRIRWRPPRLPRPRPRPCEHPRP,0.0123
12,RRIRGRPPRLPRPRPRPAKEPRP,0.414
13,RRIRPRPPRLPRPRPRPTDSPRP,-0.245
14,RRIRCRPPRLPRPRPRPAGVPRP,0.259
15,RRIRKRPPRLPRPRPRPAHCPRP,-0.0571
16,RRIRGRPPRLPRPRPRPFQGPRP,-0.0101
17,RRIRRRPPRLPRPRPRPPMDPRP,0.385
18,RRIRFRPPRLPRPRPRPTESPRP,-0.154
19,RRIRGRPPRLPRPRPRPDDDPRP,0.0442
20,RRIRNRPPRLPRPRPRPPTYPRP,-0.217
21,RRIRGRPPRLPRPRPRPGLWPRP,1.03
22,RRIRYRPPRLPRPRPRPSFWPRP,-0.122
23,RRIRGRPPRLPRPRPRPTPWPRP,0.848
24,RRIRTRPPRLPRPRPRPDPVPRP,-0.216
25,RRIRYRPPRLPRPRPRPCCSPRP,-0.141
